Measurements as given in the supplement of paper PMC9112550, “Optimization of the antimicrobial peptide Bac7 by deep mutational scanning” (BMC Biology, 2022).

system: Escherichia coli TOP10; test: shrunken log2 fold change of peptide-encoding DNA abundance (4.5 h post-induction vs induction); higher = less antimicrobial activity (less host growth inhibition); conditions: time post-induction: 4.5 h; library: site-saturation at positions 5, 18, 19, 20
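Note: peptides expressed intracellularly from a pBAD plasmid library in pooled LB shake-flask culture, induced with 0.3% L-arabinose, DNA abundance read by NGS, three biological replicates, DESeq2 with apeglm shrinkage.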

| Sequence | shrunken log2 fold change |
| --- | --- |
| RRIRPRPPRLPRPRPRPEVKPRP | -0.00169 |
| RRIRFRPPRLPRPRPRPETFPRP | -0.0396 |
| RRIRVRPPRLPRPRPRPLSTPRP | -0.0699 |
| RRIRDRPPRLPRPRPRPMAIPRP | 0.00911 |
| RRIRLRPPRLPRPRPRPRIAPRP | 0.317 |
| RRIRARPPRLPRPRPRPQLLPRP | 0.527 |
| RRIRYRPPRLPRPRPRPLRHPRP | -0.177 |
| RRIRFRPPRLPRPRPRPYNMPRP | -0.725 |
| RRIRGRPPRLPRPRPRPGCSPRP | 0.867 |
| RRIRGRPPRLPRPRPRPVTKPRP | 0.661 |
| RRIRERPPRLPRPRPRPHRFPRP | -0.169 |
| RRIRARPPRLPRPRPRPTLTPRP | 1.08 |
| RRIRLRPPRLPRPRPRPPHTPRP | 0.26 |
| RRIRMRPPRLPRPRPRPAKLPRP | 0.441 |
| RRIRCRPPRLPRPRPRPLTNPRP | -0.454 |
| RRIRWRPPRLPRPRPRPFPEPRP | -0.145 |
| RRIRFRPPRLPRPRPRPDAYPRP | -0.147 |
| RRIRNRPPRLPRPRPRPEMKPRP | -0.188 |
| RRIRERPPRLPRPRPRPTWWPRP | 0.412 |
| RRIRGRPPRLPRPRPRPGCYPRP | 0.345 |
| RRIRRRPPRLPRPRPRPVDCPRP | 0.12 |
| RRIRWRPPRLPRPRPRPCMNPRP | 0.297 |

| Sequence | shrunken log2 fold change |
| --- | --- |
| RRIRARPPRLPRPRPRPCVCPRP | 0.301 |
| RRIRQRPPRLPRPRPRPIRWPRP | -0.0554 |
| RRIRWRPPRLPRPRPRPTNPPRP | -0.0172 |
| RRIRQRPPRLPRPRPRPAPQPRP | 0.522 |
| RRIRRRPPRLPRPRPRPYIPPRP | -0.468 |
| RRIRKRPPRLPRPRPRPHQQPRP | -0.0506 |
| RRIRGRPPRLPRPRPRPIEKPRP | 0.942 |
| RRIRHRPPRLPRPRPRPFVWPRP | -0.0616 |
| RRIRGRPPRLPRPRPRPAISPRP | 0.296 |
| RRIRPRPPRLPRPRPRPYWGPRP | -0.201 |
| RRIRMRPPRLPRPRPRPQMNPRP | -0.253 |
| RRIRIRPPRLPRPRPRPILFPRP | -0.273 |
| RRIRWRPPRLPRPRPRPGNGPRP | -0.0519 |
| RRIRRRPPRLPRPRPRPKHTPRP | 0.32 |
| RRIRNRPPRLPRPRPRPLFLPRP | -0.547 |
| RRIRYRPPRLPRPRPRPNMWPRP | -0.391 |
| RRIRRRPPRLPRPRPRPLTKPRP | 0.132 |
| RRIRPRPPRLPRPRPRPEMPPRP | 0.762 |
| RRIRHRPPRLPRPRPRPEYIPRP | 0.00452 |
| RRIRPRPPRLPRPRPRPDHHPRP | -0.543 |
| RRIRTRPPRLPRPRPRPRPDPRP | 1.44 |
| RRIRWRPPRLPRPRPRPSKQPRP | 0.143 |

| Sequence | shrunken log2 fold change |
| --- | --- |
| RRIRTRPPRLPRPRPRPQDLPRP | -0.0848 |
| RRIRQRPPRLPRPRPRPFRLPRP | -0.00192 |
| RRIRGRPPRLPRPRPRPYDSPRP | 0.0118 |
| RRIRHRPPRLPRPRPRPIYFPRP | -0.123 |
| RRIRTRPPRLPRPRPRPHKGPRP | 0.0731 |
| RRIRLRPPRLPRPRPRPTWYPRP | -0.221 |
| RRIRRRPPRLPRPRPRPTWGPRP | 0.42 |
| RRIRERPPRLPRPRPRPHSMPRP | -0.126 |
| RRIRVRPPRLPRPRPRPYRRPRP | -0.0654 |
| RRIRLRPPRLPRPRPRPVQRPRP | 0.134 |
| RRIRVRPPRLPRPRPRPPAQPRP | 0.223 |
| RRIRTRPPRLPRPRPRPWKNPRP | -0.0599 |
| RRIRWRPPRLPRPRPRPDCSPRP | 0.113 |
| RRIRLRPPRLPRPRPRPQLYPRP | -0.12 |
| RRIRRRPPRLPRPRPRPKHMPRP | 0.932 |
| RRIRFRPPRLPRPRPRPTWQPRP | 0.145 |
| RRIRTRPPRLPRPRPRPEDSPRP | -0.0215 |
| RRIRPRPPRLPRPRPRPCMRPRP | -0.239 |
| RRIRWRPPRLPRPRPRPVSSPRP | 0.117 |
| RRIRQRPPRLPRPRPRPGYHPRP | -0.108 |
| RRIRRRPPRLPRPRPRPVIWPRP | 0.185 |
| RRIRIRPPRLPRPRPRPQTYPRP | -0.636 |

| Sequence | shrunken log2 fold change |
| --- | --- |
| RRIRYRPPRLPRPRPRPRWPPRP | 0.498 |
| RRIRYRPPRLPRPRPRPNKDPRP | -1.01 |
| RRIRLRPPRLPRPRPRPKSDPRP | 0.00855 |
| RRIRNRPPRLPRPRPRPLYEPRP | -0.675 |
| RRIRMRPPRLPRPRPRPTCCPRP | 0.213 |
| RRIRDRPPRLPRPRPRPDTWPRP | 0.335 |
| RRIRSRPPRLPRPRPRPSTNPRP | -0.546 |
| RRIRKRPPRLPRPRPRPMEAPRP | 0.0719 |
| RRIRRRPPRLPRPRPRPYNPPRP | -0.348 |
| RRIRIRPPRLPRPRPRPPNRPRP | -0.462 |
| RRIRIRPPRLPRPRPRPYKCPRP | -0.199 |
| RRIRQRPPRLPRPRPRPHRCPRP | 0.109 |
| RRIRQRPPRLPRPRPRPNWHPRP | 0.141 |
| RRIRMRPPRLPRPRPRPSELPRP | 0.12 |
| RRIRCRPPRLPRPRPRPDIFPRP | -0.262 |
| RRIRLRPPRLPRPRPRPGRKPRP | 0.0459 |
| RRIRFRPPRLPRPRPRPFHYPRP | 0.0611 |
| RRIRKRPPRLPRPRPRPRPIPRP | 0.824 |
| RRIRCRPPRLPRPRPRPYHEPRP | -0.329 |
| RRIRQRPPRLPRPRPRPVAPPRP | 0.357 |
| RRIRYRPPRLPRPRPRPKGKPRP | -0.215 |
| RRIRPRPPRLPRPRPRPDCEPRP | 0.0556 |

| Sequence | shrunken log2 fold change |
| --- | --- |
| RRIRRRPPRLPRPRPRPFVVPRP | 0.0981 |
| RRIRYRPPRLPRPRPRPYHIPRP | -0.23 |
| RRIRARPPRLPRPRPRPGELPRP | 0.333 |
| RRIRYRPPRLPRPRPRPIWRPRP | 0.0429 |
| RRIRNRPPRLPRPRPRPFVFPRP | -0.0679 |
| RRIRRRPPRLPRPRPRPAFEPRP | 0.54 |
| RRIRERPPRLPRPRPRPVAQPRP | -0.201 |
| RRIRIRPPRLPRPRPRPFWYPRP | 0.00745 |
| RRIRGRPPRLPRPRPRPIYQPRP | 0.0644 |
| RRIRLRPPRLPRPRPRPIINPRP | -0.448 |
| RRIRVRPPRLPRPRPRPYWSPRP | 0.000469 |
| RRIRDRPPRLPRPRPRPPDKPRP | 0.189 |
| RRIRTRPPRLPRPRPRPLDEPRP | 0.23 |
| RRIRMRPPRLPRPRPRPAAHPRP | 0.531 |
| RRIRMRPPRLPRPRPRPECVPRP | 2.97 |
| RRIRDRPPRLPRPRPRPGQPPRP | -0.181 |
| RRIRERPPRLPRPRPRPDSIPRP | -0.042 |
| RRIRFRPPRLPRPRPRPQRMPRP | -0.29 |
| RRIRARPPRLPRPRPRPYYSPRP | -0.173 |
| RRIRIRPPRLPRPRPRPGCFPRP | -0.0641 |
| RRIRDRPPRLPRPRPRPNIWPRP | 0.306 |
